The target of test [1] is SARS-CoV RBD (SARS-CoV, strain , UniProt P59594). Kind of test: BLI.
Test [2] concerns the target Recombinant SARS-CoV-2 RBD protein (E. coli) (SARS-CoV-2, UniProt P0DTC2). Kind of test: BLI. A general note: Biolayer interferometry detects binding as a change in optical thickness at a sensor tip.

B1: 2B04, anti-SARS-CoV-2 mAb (IgG) (antibody, V domains shown)
VH: QVQLKQSGPGLVAPSQSLSITCTVSGFSLINYAISWVRQPPGKGLEWLGVIWTGGGTNYNSALKSRLSISKDNSKSQVFLKMNSLQTDDTARYYCARKDYYGRYYGMDYWGQGTSVTVS
VL: QAVVTQESALTTSPGETVTLTCRSSTGAVTTSNYANWVQEKPDHLFTGLIGGTNNRAPGVPARFSGSLIGDKAALTITGAQTEDEAIYFCALWYNNHWVFGGGTKLTVL
Turning to B1, the binding result in test [1] is “no binding”. Further, in test [2], the Kd is 0.00105 µM and the half-life of dissociation was 23.7 min.

B2: 2H04, anti-SARS-CoV-2 mAb (IgG) (antibody, V domains shown)
VH: EVQLQQSGAELVKPGASVKMSCKASGYTFTSYWITWVKQRPGQGLEWIGDIYPGSGSTKYNEKFRSEATLTVDTSSTTAYMQLSSLTSEDSAVYYCARWDFYGSRTFDYWGQGTTLTVSS
VL: DIVLTQSPAILSVSPGERVSFSCRASQNIGTIIHWYQQRTNGSPRLLIKYASESVSGIPSRFSGSGSGTDFTLSINSVESEDIADYYCQQSSSWPLTFGAGTKLEL
For B2, in test [2], the Kd was 0.0401 µM and the half-life of dissociation was found to be 1.27 min.

As a reminder, the Kd is the constant that tells how readily two partners part at equilibrium.

Source of the values: publication PMC8498651 (Cell Reports, 2021).
